Molecular target: cdc37_human CDC37 (UniProt Q16543)
Sequence (Q16543 whole entry): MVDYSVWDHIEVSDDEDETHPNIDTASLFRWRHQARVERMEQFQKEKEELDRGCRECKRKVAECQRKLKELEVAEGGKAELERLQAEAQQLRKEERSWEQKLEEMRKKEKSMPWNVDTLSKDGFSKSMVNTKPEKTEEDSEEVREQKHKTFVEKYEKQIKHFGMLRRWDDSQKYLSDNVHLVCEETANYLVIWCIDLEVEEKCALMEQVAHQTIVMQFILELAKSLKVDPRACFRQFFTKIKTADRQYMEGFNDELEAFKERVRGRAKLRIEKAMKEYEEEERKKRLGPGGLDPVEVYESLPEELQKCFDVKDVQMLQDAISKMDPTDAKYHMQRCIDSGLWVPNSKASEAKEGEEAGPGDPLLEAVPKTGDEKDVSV

- effect of a mutation on the interaction: increasing interaction
Substance: Leucine-rich repeat serine/threonine-protein kinase 2 (Homo sapiens), Q5S007 G2385R

Source: IntAct's records for PubMed 22612223
